The text below walks through data of patent US10752881B2, “Trans-differentiation of differentiation cells” (Helmholtz Zentrum München-Deutsches Forschungszentrum für …, priority 2014, dated 2020).

Data set [1] has as its system postnatal mouse astrocytes. As to conditions: for effect on reprogramming efficiency of astrocytes: Ascl1-transfected, 4 days of calcitriol treatment.
Experimental: (C) Histogram of astroglial cultures transfected with Ascl1-RFP-encoding plasmid alone or in combination with WT-Bcl-2, EE-Bcl-2 or A-Bcl-2 at 4 days post-transfection (DPT). The number of transfected cells (RFP+) at final time point (4 DPT) was normalized to the initial number of transfected cells (1 DPT) to calculate the % of survival. The % of neuronal conversion was analysed by β-III-tubulin immunostaining and normalized to total number of RFP+ cells at the end of the experiment. Error bars indicate ±SD. *p<0.05, **p<0.01; ANOVA Tukeys post-test.
A, Quantifications at 5 DPT (days post-transfection) showing the effect of the inhibitor of ferroptosis, α-toc and the inhibitor of apoptosis, ZVAD in survival/efficiency of conversion of astroglial cells transfected with Ascl1-RFP.
C, Percentage of neurons in astroglial cells transfected with Ascl1-encoding plasmid alone or in combination with Bcl-2 and/or Vdr at 5 DPT after 4 days of treatment with calcitriol or untreated.
After removal of the meninges, grey matter tissue was dissected from P5-P7 cerebral cortex of C57BL/6J mice and dissociated mechanically. Subsequently, cells were centrifuged for 5 min at 1000 rpm, re-suspended, and plated in medium consisting of DMEM/F12 (Gibco), 3.5 mM glucose (Sigma), 10% fetal calf serum (Gibco), 5% horse serum (Gibco), penicillin/streptomycin (Gibco) and supplemented with B27 (Gibco), 10 ng/mL epidermal growth factor (EGF, Roche) and 10 ng/mL fibroblast growth factor 2 (FGF2, Roche). After one week expansion cells were harvested using trypsin/EDTA (Gibco) and plated onto poly-D-lysine (Sigma-Aldrich) coated glass coverslips in 24-well plates (BD Biosciences) or directly onto the plastic for time lapse experiments at a density of 60,000 cells per well in the same medium. After 24 hours cells were either transfected with plasmid or infected with retroviral vectors and after further 24 hours medium was changed to differentiation medium composed of DMEM/F12 high glucose with GlutaMAX, penicillin/streptomycin and B27 supplement (Gibco) to allow neuronal differentiation.
For transfection DNA-liposome complexes were prepared in Optimem medium (Invitrogen) using the retroviral plasmids described below and Lipofectamine 2000 (Invitrogen). Astrocyte cultures were exposed to DNA-liposome complexes at a concentration of 0.5 μg DNA per 400 μl of Optimem medium for 4 hours and cultured after that in the differentiation medium as above.
Cells were fixed in 4% paraformaldehyde (PFA) in phosphate-buffered saline (PBS) for 10 min at room temperature (RT), washed in PBS and pretreated in 0.5% Triton X-100 in PBS for 30 min, followed by incubation in 2% BSA and 0.5% Triton X-100 in PBS for 30 min. Primary antibodies were incubated on specimen overnight at 4° C. in 2% BSA, 0.5% Triton X-100 in PBS.
Another data set concerns adult human fibroblasts. In words: Neuronal reprogramming of adult human fibroblasts. In kind it is cell-based. As to conditions: for effect on reprogramming efficiency of human fibroblasts: combination Ascl1/Bcl-2/Vdr, 60 DPI. The text has this: To determine whether Bcl-2 would also efficiently enhance reprogramming into neurons in cells from other species, we used fibroblasts obtained from a person that were expanded and transduced as described above with the retroviral vector encoding Ascl1 and RFP alone or in combination with a second vector encoding the human BCL-2 (hBCL-2) and the reporter GFP.
Primary cultures of human skin fibroblasts were established from 3 mm diameter full thickness punch biopsy specimens which were mechanically dissociated before plating. […] For reprogramming experiments cells were plated on coverslips in 24-well plates as described above for astrocytes and 48 hours after infection medium was changed to DMEM high glucose with GlutaMAX and 1% fetal calf serum, penicillin/streptomycin and B27 supplement (Gibco). During the reprogramming process, medium was replaced by conditioned-astrocyte medium every 3 days. Conditioned-astrocyte medium is obtained by growing astroglial culture with differentiation medium (see Cell cultures of astroglia from the postnatal mouse cerebral cortex above) during minimum of 2 days. Then the medium is collected from astrocytes and used for reprogramming of the human cells.
For the expression of neurogenic transcription factors we used self-inactivating retroviral vectors containing the actin promoter with cytomegalovirus enhancer (pCAG) driving the expression of the gene of interest (flag/myc-Ascl1, flag-Neurog2, Bcl-2 or Dlx-2) linked to a fluorescent reporter by internal ribosomal entry site (IRES) as previously described (Heinrich et al., 2011). The mouse version of Bcl-2 cDNA was obtained from Source BioScience (IRAVp968H01145D; pCMV-SPORT6.1-Bcl-2) and the human cDNA version (h-Bcl-2) from addgene (Plasmid number 8793; pMIG-Bcl-2-IRES-GFP) to generate RV-pCAG-flag/myc-Ascl1-IRES-Bcl-2, RV-pCAG-flag-Neurog2-IRES-Bcl-2 or RV-pCAG-Bcl-2-IRES-GFP, which encodes for both Bcl-2 and the reporter GFP. The Bcl-2 mutants A-Bcl-2 and EE-Bcl-2 were produced by directed mutagenesis with the oligos 5′-[…]-3′ (SEQ ID NO: 18) (and complementary (SEQ ID NO: 20)) and 5′-[…]-3′ (SEQ ID NO: 19) (and complementary (SEQ ID NO: 21)) respectively, to generate the vectors pCMV-SPORT6.1-A-Bcl-2, RV-pCAG-Ascl1-IRES-A-Bcl-2 and RV-pCAG-Neurog2-IRES-A-Bcl-2 and the corresponding EE-Bcl-2 versions. Mutations were verified by sequencing. The murine Vdr was obtained from Sino Biological (MG51106-G, Vector pGEM-T) and sub-cloned in the retroviral vector to generate RV-pCAG-Vdr-IRES-GFP.

The subject of the next data set is reactive glial cells. Briefly: In vivo conversion of reactive glial cells into neurons after stab wound injury. The conditions noted are these: for acquisition of neuronal marker NeuN by singly transduced cells: single GFP+ or RFP+ cells. The text has this: A, Experimental protocol for stab wound injury and subsequent infection with retroviral vectors (Neurog2/RFP and Bcl-2/GFP) or treatment with calcitriol, analysed at 10 or 20 days post-infection (DPI).
To highlight the relevance of our findings we next tested the efficiency of the methods described above in vivo. For that, we performed stab wound injury followed by injection of retroviral vectors encoding Neurog2-IRES-RFP and Bcl-2-IRES-GFP next to the injury site (FIG. 7A) using a previously described protocol (see Heinrich et al., 2014). Control infected cells were glial in nature, mostly NG2+ cells of the oligodendrocyte lineage or S100b/GFAP+ astrocytes as described before (Heinrich et al., 2014). […] To examine whether key metabolic constraints observed to be important for fate conversion in vitro were also relevant in vivo we tested activation of the Vitamin D receptor pathway by the ligand calcitriol.
Operations were performed in accordance with the policies of the state of Bavaria under license number 55.2-1-54-2532-171-11. A unilateral stab wound lesion (1 mm long, 0.6 mm deep from the dura mater) was performed in the right neocortex with a 19 gauge-thick lancet without injuring the cortical white matter, as previously described (Sirko et al. 2013; Simon et al. 2011). Three days later, 0.5-1 μl of retroviral suspension (Neurog2-IRES-RFP and Bcl-2-IRES-GFP, 1:1) was injected in the site of the lesion with a glass capillary connected to a microinjector (Nanoliter2000+Sys-Micro4, World Precision Instrument), at a rate of 30-60 nl/min. The needle was retracted 5 minutes after completing the injection. When indicated in the text, 200 μl of Calcitriol (Tocris) diluted in corn oil (final concentration of 1 ng/μl) were administered through oral gavage 2 days after the retroviral injection. The dosage was determined according with previous publications (Nashold et al. 2013).
Animals were anesthetized and transcardially perfused with 1× phosphate-buffered saline (PBS), followed by 4% paraformaldehyde (PFA) in PBS. Brains were postfixed for 2 hours, washed twice with PBS and embedded in 4% agarose/water. Finally, 60 μm-thick coronal sections were cut using a vibrating microtome (Leica).

Data set [2] concerns astroglia isolated from mouse cerebral cortex at postnatal day 5-7. Briefly: Continuous single cell live imaging of Ascl1-mediated astrocyte-to-neuron reprogramming. As to conditions: for increase of proportion of cells successfully completing reprogramming into neurons: Ascl1 + Bcl-2 vs Ascl1 only. In kind it is cell-based. The text has this: In order to identify the cellular mechanisms of neuronal reprogramming, astroglia isolated from mouse cerebral cortex at postnatal day 5-7 were transfected with an Ascl1-encoding vector thereby targeting non-proliferating cells in addition to those transduced by approaches such as MLV-based retroviral vectors that require proliferation and break-down of the nuclear envelope for successful gene transfer. Our transfection protocol (Heinrich et al., PLoS biology 8, e1000373 (2010); Heinrich et al., Nature protocols 6, 214-228 (2011)) enables cells labelled by red fluorescent protein (RFP) 24 hours after transfection to be subject to continuous live imaging for the main phase of reprogramming (i.e. 6 days). Glial and neuronal cells were identified by their morphology, with the former displaying a flat astrocyte-like morphology and the latter with a round cell soma and thin processes (monopolar, bipolar and multipolar) at least 3× longer than the cell soma. This morphology-based classification was confirmed by post-imaging immunostaining (FIG. 1A). Few of the cells transduced with Ascl1 divided during the 150 hours observation (15%: FIG. 1E). Thus, the vast majority of direct neuronal reprogramming occurs in the absence of proliferation in this system.
Time-lapse video microscopy was performed with a cell observer (Zeiss) at a constant temperature of 37° C. and 8% CO2. Phase contrast images were acquired every 5 minutes, and fluorescence pictures every 4-6 hours for 6.5-7.5 days using a 10× phase contrast objective (Zeiss), and an AxioCamHRm camera with a self-written VBA module remote controlling Zeiss AxioVision 4.7 software (Rieger and Schroeder, Journal of cellular biochemistry 108, 343-352 (2009)). Movies were assembled using Image J 1.42q (National Institute of Health, USA) software and are played at speed of 3 frames per second.

Data set [3] deals with Mouse embryonic fibroblasts (MEFs). In words: Fibroblast-to-neuron reprogramming of MEFs with retroviral vectors, β-III-tubulin immunostaining. In kind it is cell-based.
The next data set concerns vitamin d receptor (vdr). In words: Vdr expression during neuronal reprogramming (immunostaining). In kind it is cell-based. The conditions noted are these: during neuronal reprogramming with Ascl1, 5 DPI. On the procedure: A, Percentage of cells expressing Vdr in cultures infected with Ascl1-encoding vector alone or Ascl1+A-Bcl-2 at 5 DPI. Vdr presence was determined by immunostaining (B). Note that Bcl-2 increases the proportion of cells expressing endogenous Vdr during neuronal reprogramming.

The mark [4] stands for this setting: astroglial cells transfected with Ascl1-RFP, 5 DPT.

Residues, ends and D or L forms follow the SMILES beside them. *: point of attachment. Cbz = O=C(OCc1ccccc1)*; CH2F = FC*

Consider `Cc1c(C)c2c(c(C)c1O)CC[C@@](C)(CCC[C@H](C)CCC[C@H](C)CCCC(C)C)O2` [α-tocopherol], for which, in data set [1] (setting [4]), the “effect on efficiency of conversion (reprogramming efficiency)” value was “increase reprogramming efficiency” and the “effect on survival / cell death” value is on record as “reduces cell death”.
As for `COC(=O)C[C@H](NC(=O)[C@H](C)NC(=O)[C@@H](NC(=O)OCc1ccccc1)C(C)C)C(=O)CF` [ZVAD] (Cbz-Val-Ala-Asp(OMe)-CH2F), the “effect on efficiency of conversion (reprogramming efficiency)” value in data set [1] (setting [4]) is “not conversion efficiency”.
As for `C=C1/C(=C\C=C2/CCC[C@]3(C)[C@@H]([C@H](C)CCCC(C)(C)O)CC[C@@H]23)C[C@@H](O)C[C@@H]1O` [calcitriol, reference compound], the “effect on reprogramming efficiency of human fibroblasts” value with adult human fibroblasts is on record as “enhance reprogramming efficiency”. Also, the “effect on morphology and maturation state of the neurons” value with reactive glial cells (Neurog2 + Bcl-2, calcitriol 200 ng orally, 23 days after viral infection) was “profoundly improved morphology and maturation state of the neurons”. Moreover, in the data set on reactive glial cells (Neurog2 + Bcl-2 co-expression, calcitriol 200 ng orally 2 days after viral injection, 10 DPI), the “proportion of NeuN+ neurons of all co-transduced cells” value is approximately 90%. Besides, in data set [1] (5 DPT), the “effect on reprogramming efficiency of astrocytes” value was “enhance reprogramming efficiency”.
As for “hBcl-2: human BCL-2 encoded by a retroviral vector with the reporter GFP”, the “increase of β-III-tubulin+ cells compared to Ascl1/RFP expressing cells” value in the data set on adult human fibroblasts (co-transduced with Ascl1) is recorded as 32 × fold. Also, the “co-infected cells (RFP and GFP) that were β-III-tubulin+” value in the data set with adult human fibroblasts (co-transduced with Ascl1, fibroblasts from a person) is given as “up to 70%”.

B1: Bcl-2: mouse Bcl-2 cDNA expressed from plasmid or retroviral vector; anti-apoptotic member of the Bcl-2 family (protein, listed as Mus musculus)
chain: MAQAGRTGYDNREIVMKYIHYKLSQRGYEWDAGDADAAPLGAAPTPGIFSFQPESNPMPAVHRDMAARTSPLRPLVATAGPALSPVPPVVHLTLRRAGDDFSRRYRRDFAEMSSQLHLTPFTARGRFATVVEELFRDGVNWGRIVAFFEFGGVMCVESVNREMSPLVDNIALWMTEYLNRHLHTWIQDNGGWDAFVELYGPSMRPLFDFSWLSLKTLLSLALVGACITLGAYLGHK
For the molecule B1, in data set [2] (Ascl1 + Bcl-2), the “fraction of cells with acquired neuronal morphology dying” value is “about ⅓”, the “survival rate of remaining glial cells” value was found to be 10% and the “survival rate of successfully converted cells” value is on record as 2/3. Further, the “effect on rate of proliferation during reprogramming” value in data set [2] (Ascl1 + Bcl-2, 150 h) was “did not affect the rate of proliferation during reprogramming”. Moreover, the “effect on speed of astrocyte-to-neuron conversion” value in data set [2] (Ascl1 + Bcl-2, first 50-75 h of tracking) is on record as “accelerated astrocyte-to-neuron conversion”. In data set [2] (at 50 h of tracking), the “increase of proportion of cells successfully completing reprogramming into neurons” value is given as approximately 8 fold. Moreover, the “increase of proportion of cells successfully completing reprogramming into neurons” value in data set [2] (end of the tracking time period) is “over 3 fold”. The “effect on survival of cells during neuronal conversion” value in data set [2] (co-transduction with Ascl1, 150 hours imaging) is “robustly enhanced survival of cells during neuronal conversion”. Moreover, in data set [3] (Ascl1-based retroviral vectors, 14 days after infection), the “neuronal conversion in MEFs (β-III-tubulin)” value is 42.8%. In addition, the “effect on expression of vdr” value in the data set on vitamin d receptor (vdr) is given as “induces expression of vdr”. For the same molecule, in the data set with reactive glial cells (Neurog2-IRES-RFP and Bcl-2-IRES-GFP co-transduced, 10 DPI), the “neuronal conversion of co-transduced cells (GFP+/RFP+)” value was “many co-transduced cells (GFP+/RFP+) exhibited elongated neuronal-shape morphology and were immunoreactive for NeuN”. Also, the “acquisition of neuronal marker NeuN by singly transduced cells” value in the data set with reactive glial cells (10 DPI) is recorded as “rarely acquired the neuronal marker NeuN”. Also, the “effect on total number of surviving cells and reprogrammed neurons” value in data set [1] (co-transfected with Ascl1/RFP, 6 and 12 days) was “distinctly increased the total number of surviving cells and reprogrammed neurons”.

B2: Neurog2: neurogenic transcription factor expressed from retroviral vector with RFP (protein, UniProt P70447 1-263, looked up)
Neurogenin-2: MFVKSETLELKEEEEVLMLLGSASPASATLTPMSSSADEEEDEELRRPGSARGQRGAEAEQGVQGSPASGAGGCRPGRLLGLMHECKRRPSRSRAVSRGAKTAETVQRIKKTRRLKANNRERNRMHNLNAALDALREVLPTFPEDAKLTKIETLRFAHNYIWALTETLRLADHCAGAGGLQGALFTEAVLLSPGAALGASGDSPSPPSSWSCTNSPASSSNSTSPYSCTLSPASPGSDVDYWQPPPPEKHRYAPHLPLARDCI
For B2, the “proportion of neurons induced from MEFs, of all infected cells” value in data set [3] (Neurog2-based retroviral vectors, 15 days after infection) turned out to be 10%. The “acquisition of neuronal marker NeuN by singly transduced cells” value with reactive glial cells (10 DPI) is “rarely acquired the neuronal marker NeuN”.

B3: Vdr: murine vitamin D receptor over-expressed from retroviral vector RV-pCAG-Vdr-IRES-GFP (protein, listed as Mus musculus)
chain: MEAMAASTSLPDPGDFDRNVPRICGVCGDRATGFHFNAMTCEGCKGFFRRSMKRKALFTCPFNGDCRITKDNRRHCQACRLKRCVDIGMMKEFILTDEEVQRKREMIMKRKEEEALKDSLRPKLSEEQQHIIAILLDAHHKTYDPTYADFRDFRPPIRADVSTGSYSPRPTLSFSGDSSSNSDLYTPSLDMMEPASFSTMDLNEEGSDDPSVTLDLSPLSMLPHLADLVSYSIQKVIGFAKMIPGFRDLTSDDQIVLLKSSAIEVIMLRSNQSFTLDDMSWDCGSQDYKYDITDVSRAGHTLELIEPLIKFQVGLKKLNLHEEEHVLLMAICIVSPDRPGVQDAKLVEAIQDRLSNTLQTYIRCRHPPPGSHQLYAKMIQKLADLRSLNEEHSKQYRSLSFQPENSMKLTPLVLEVFGNEIS
For the molecule B3, in the data set on adult human fibroblasts, the “effect on reprogramming efficiency of human fibroblasts” value is recorded as “enhance reprogramming efficiency”. Besides, in data set [1] (5 DPT), the “effect on reprogramming efficiency of astrocytes” value is “enhance reprogramming efficiency”.
